Here are results for 17 sequences from the supplement of paper PMC10899765.

Common to all, as to conditions: 20 nM; 72 h
In data set [1] the test system is MCF10A. Put plainly: 5+ nucleoli phenotype percent effect, hitpick validation (relative to siNT 0% and siKIF11 100%); higher = more cells with five or more nucleoli. The method, then:
(§1)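 Primary screen hits (microRNA mimics) were re-picked and rescreened for nucleolar number in MCF10A cells (hitpick validation; percent effect relative to the siNT and siNOL11/siKIF11 controls). A secondary screen measured nucleolar rRNA biogenesis inhibition: after 72 h of transfection at 20 nM, cells were labelled 1 h with 1 mM 5-EU and nucleolar 5-EU signal was quantified, normalised to siNT (0%) and siPOLR1A (100%). Means are over n=5 (MCF10A) or n=2 (RPE-1, HeLa) biological replicates.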

The test system of data set [2] is MCF10A. Put plainly: 5+ nucleoli phenotype percent effect (relative to siNT 0% and siKIF11 100%); higher = more cells with five or more nucleoli. On the procedure: (§2)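 After 72 h, cells were fixed and stained with Hoechst and anti-fibrillarin, and nucleoli per nucleus were counted with CellProfiler. Values are plate-adjusted percent effect for the one-nucleolus and 5+ nucleoli phenotypes, normalised to siNT (0%) and to the positive controls siNOL11 or siKIF11 (100%), as the mean of biological triplicates. Percent viability is the nuclei count relative to siNT.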

Data set [3] deals with HeLa. Briefly: nucleolar rRNA biogenesis percent inhibition (5-EU; siNT 0%, siPOLR1A 100%); higher = stronger inhibition of nucleolar rRNA biogenesis. The method, then:
as §1

In data set [4] the test system is MCF10A. The data set is described as above. On the procedure:
as §1

In data set [5] the test system is hTERT RPE-1. The data set is described as above. The method, then:
as §1

Data set [6] relates to MCF10A. Put plainly: one-nucleolus phenotype percent effect, hitpick validation (relative to siNT 0% and siNOL11 100%); higher = more cells with one nucleolus. On the procedure:
as §1

In data set [7] the test system is MCF10A. Put plainly: percent viability (nuclei count relative to siNT); higher = more viable cells. On the procedure:
as §2

In data set [8] the test system is MCF10A. Put plainly: one-nucleolus phenotype percent effect (relative to siNT 0% and siNOL11 100%); higher = more cells with one nucleolus (ribosome biogenesis inhibition). The method, then:
as §2

For CGGCGGGGACGGCGAUUGGUC [hsa-miR-1908-5p], the “5+ nucleoli phenotype percent effect” value is -7.82% in data set [1] and -47.2% in data set [2]. Further, the “nucleolar rRNA biogenesis percent inhibition” value came to 68.5% in data set [3], 90.6% in data set [4] and 113% in data set [5]. Besides, the “one-nucleolus phenotype percent effect” value in data set [6] was found to be 128%; in data set [8] it was 93.7%. Also, the percent viability in data set [7] worked out at 40.6%.

Consider CUUAUGCAAGAUUCCCUUCUAC [hsa-miR-491-3p], for which the “5+ nucleoli phenotype percent effect” value was -10.1% in data set [1] and -51.5% in data set [2]. In addition, the “nucleolar rRNA biogenesis percent inhibition” value is -3.33% in data set [3], 63.6% in data set [4] and -86.4% in data set [5]. In addition, the “one-nucleolus phenotype percent effect” value in data set [6] was 118%; in data set [8] it was 73.6%. The sequence further displayed a percent viability in data set [7] of 15.5%.

AGAAGGCACUAUGAGAUUUAGA [hsa-miR-605-3p]: the “5+ nucleoli phenotype percent effect” value was -15.9% in data set [1] and -49.9% in data set [2]. Further, the “nucleolar rRNA biogenesis percent inhibition” value in data set [3] was 23.1%; in data set [4] it was 65%; in data set [5], -22.8%. Moreover, the “one-nucleolus phenotype percent effect” value stood at 154% in data set [6] and 66.4% in data set [8]. Moreover, in data set [7], the percent viability was 43.9%.

Regarding “AGUUUUGCAGGUUUGCAUCCAGC [hsa-miR-19b-1-5p]”, the “5+ nucleoli phenotype percent effect” value in data set [1] was -19.8%; in data set [2], -41.5%. Further, the “nucleolar rRNA biogenesis percent inhibition” value in data set [3] is 92.7%; in data set [4], 30.7%; in data set [5], -48.4%. For the same sequence, the “one-nucleolus phenotype percent effect” value came out at 196% in data set [6] and 76.9% in data set [8]. In data set [7], this sequence had a percent viability of 26.2%.

In the case of CAAUCAGCAAGUAUACUGCCCU [hsa-miR-34a-3p], the “5+ nucleoli phenotype percent effect” value in data set [1] is 1.68%; in data set [2] it was -43.5%. For the same sequence, the “nucleolar rRNA biogenesis percent inhibition” value in data set [3] was -6.79%; in data set [4], 70.2%; in data set [5] it was 113%. Moreover, the “one-nucleolus phenotype percent effect” value amounted to 127% in data set [6] and 83.5% in data set [8]. Moreover, in data set [7], the percent viability amounted to 25.6%.

Consider “CAUCUGGCAUCCGUCACACAGA [hsa-miR-3126-3p]”, for which the “5+ nucleoli phenotype percent effect” value in data set [1] was -8.87%; in data set [2] it was -5.56%. Also, the results for the “nucleolar rRNA biogenesis percent inhibition” value in data set [3], in data set [4] and in data set [5] were 4.46%, 22.1% and 50.7%, respectively. Moreover, the results for the “one-nucleolus phenotype percent effect” value in data set [6] and in data set [8] were 105% and 67%, respectively. This sequence also came in with a percent viability in data set [7] of 9.11%.

Consider UGCCUGUCUACACUUGCUGUGC [hsa-miR-214-5p], for which the “5+ nucleoli phenotype percent effect” value in data set [1] was -11.5%; in data set [2], -42.1%. Besides, the entries for the “nucleolar rRNA biogenesis percent inhibition” value in data set [3], in data set [4] and in data set [5] were 32%, -8.48% and 87.1%, respectively. Besides, the “one-nucleolus phenotype percent effect” value in data set [6] came to 122%; in data set [8] it was 93.5%. Moreover, the percent viability in data set [7] was determined as 31.1%.

Regarding AAGGAGCUCACAGUCUAUUGAG [hsa-miR-28-5p], the results for the “5+ nucleoli phenotype percent effect” value in data set [1] and in data set [2] were -2.58% and -30.7%, respectively. Also, the “nucleolar rRNA biogenesis percent inhibition” value in data set [3] stood at 60.9%; in data set [4], 0.18%; in data set [5], 63.6%. Besides, the “one-nucleolus phenotype percent effect” value in data set [6] turned out to be 146%; in data set [8] it was 69.4%. Further, the percent viability in data set [7] was 39%.

CAGGUCGUCUUGCAGGGCUUCU [hsa-miR-431-3p]: the “5+ nucleoli phenotype percent effect” value in data set [1] is -15.2%; in data set [2], -53.4%. Further, the “nucleolar rRNA biogenesis percent inhibition” value in data set [3] turned out to be 115%; in data set [4], 83.8%; in data set [5] it was 118%. The “one-nucleolus phenotype percent effect” value came to 182% in data set [6] and 84.4% in data set [8]. Also, in data set [7], the percent viability is 35.3%.

In the case of AGAUCAGAAGGUGAUUGUGGCU [hsa-miR-383-5p], the “5+ nucleoli phenotype percent effect” value in data set [1] was -5.3%; in data set [2] it was -26.7%. The entries for the “nucleolar rRNA biogenesis percent inhibition” value in data set [3], in data set [4] and in data set [5] were 129%, 0.973% and 123%, respectively. Moreover, the “one-nucleolus phenotype percent effect” value in data set [6] worked out at 125%; in data set [8], 68.7%. This sequence also registered a percent viability in data set [7] of 14.2%.

For UGUCCUCUAGGGCCUGCAGUCU [hsa-miR-3909], the results for the “5+ nucleoli phenotype percent effect” value in data set [1] and in data set [2] were -15.4% and -34.2%, respectively. The results for the “nucleolar rRNA biogenesis percent inhibition” value in data set [3], in data set [4] and in data set [5] were 74.5%, 42.9% and 66.8%, respectively. The “one-nucleolus phenotype percent effect” value in data set [6] is 196%; in data set [8] it was 93.1%. Besides, the percent viability in data set [7] stood at 25.5%.

As to UAUGGCACUGGUAGAAUUCACU [hsa-miR-183-5p], the “5+ nucleoli phenotype percent effect” value in data set [1] was -0.696%; in data set [2], -24%. The “nucleolar rRNA biogenesis percent inhibition” value in data set [3] stood at 21.8%; in data set [4] it was 33.5%; in data set [5], 204%. The entries for the “one-nucleolus phenotype percent effect” value in data set [6] and in data set [8] were 101% and 81%, respectively. Moreover, the percent viability in data set [7] amounted to 16.2%.

On to UGGCAGUGUCUUAGCUGGUUGU [hsa-miR-34a-5p], for which the “5+ nucleoli phenotype percent effect” value in data set [1] was 19.4%; in data set [2], -14.4%. Besides, the “nucleolar rRNA biogenesis percent inhibition” value in data set [3] stood at 37.7%; in data set [4], 72.2%; in data set [5] it was 52.6%. Moreover, the “one-nucleolus phenotype percent effect” value came out at 28.9% in data set [6] and 11.2% in data set [8]. The sequence further had a percent viability in data set [7] of 11.9%.

On to CUGCCAAUUCCAUAGGUCACAG [hsa-miR-192-3p], for which the “5+ nucleoli phenotype percent effect” value in data set [1] is -12.3%; in data set [2], -40.8%. The entries for the “nucleolar rRNA biogenesis percent inhibition” value in data set [3], in data set [4] and in data set [5] were 37.7%, 67.1% and 136%, respectively. In addition, the figures for the “one-nucleolus phenotype percent effect” value in data set [6] and in data set [8] were 137% and 70.5%, respectively. Besides, the percent viability in data set [7] came out at 62.7%.

Consider AGGCGGAGACUUGGGCAAUUG [hsa-miR-25-5p], for which the “5+ nucleoli phenotype percent effect” value in data set [1] is -9.31%; in data set [2] it was -48.5%. The “nucleolar rRNA biogenesis percent inhibition” value in data set [3] is 86.7%; in data set [4], 75.3%; in data set [5], 45.2%. For the same sequence, the entries for the “one-nucleolus phenotype percent effect” value in data set [6] and in data set [8] were 182% and 115%, respectively. The percent viability in data set [7] came out at 29.4%.

On to UGAAGGUCUACUGUGUGCCAGG [hsa-miR-493-3p], for which the results for the “5+ nucleoli phenotype percent effect” value in data set [1] and in data set [2] were 4.11% and -34.3%, respectively. Further, the “nucleolar rRNA biogenesis percent inhibition” value is -1.09% in data set [3], 69.3% in data set [4] and 108% in data set [5]. Further, the “one-nucleolus phenotype percent effect” value in data set [6] is 126%; in data set [8] it was 73%. For the same sequence, in data set [7], the percent viability turned out to be 28%.

“ACCUUGGCUCUAGACUGCUUACU [hsa-miR-212-5p]”: the “5+ nucleoli phenotype percent effect” value stood at 91.8% in data set [1] and 164% in data set [2]. The results for the “nucleolar rRNA biogenesis percent inhibition” value in data set [3], in data set [4] and in data set [5] were 95.9%, 118% and 114%, respectively. Also, the “one-nucleolus phenotype percent effect” value in data set [6] is -36.9%; in data set [8], -30.9%. In data set [7], this sequence had a percent viability of 27.9%.
